Experimental data published in article PMC10684670.

B1: B7-H6: tunicamycin (protein)
parent chain: MTWRAAASTCAALLILLWALTTEGDLKVEMMAGGTQITPLNDNVTIFCNIFYSQPLNITSMGITWFWKSLTFDKEVKVFEFFGDHQEAFRPGAIVSPWRLKSGDASLRLPGIQLEEAGEYRCEVVVTPLKAQGTVQLEVVASPASRLLLDQVGMKENEDKYMCESSGFYPEAINITWEKQTQKFPHPIEISEDVITGPTIKNMDGTFNVTSCLKLNSSQEDPGTVYQCVVRHASLHTPLRSNFTLTAARHSLSETEKTDNFSIHWWPISFIGVGLVLLIVLIPWKKICNKSSSAYTPLKCILKHWNSFDTQTLKKEHLIFFCTRAWPSYQLQDGEAWPPEGSVNINTIQQLDVFCRQEGKWSEVPYVQAFFALRDNPDLCQCCRIDPALLTVTSGKSIDDNSTKSEKQTPREHSDAVPDAPILPVSPIWEPPPATTSTTPVLSSQPPTLLLPLQ
B2: B7-H6: N43Q (protein)
parent chain: B1 parent chain
B3: B7-H6: N208Q (protein)
parent chain: B1 parent chain

Columns and labels:
rhNKp30-his protein = rhNKp30-his protein (UniProt O14931); assay: flow cytometry on cells; conditions: 293T cells stably expressing B7-H6, stained with his-tagged NKp30; parent: est. 1.0; read off a plot
CHX chase, WB, U87 = conditions: glycan lost; control: DMSO
CHX chase, WB, 293T = conditions: glycan lost; control: DMSO
[1] = CHX chase, WB, stable 293T; conditions: glycan lost; control: wild type
[2] = surface B7-H6 flow cytometry, HCT-116; conditions: glycan lost; control: wild type
[3] = surface B7-H6 flow cytometry, HEK293T; conditions: glycan lost; control: wild type
[4] = WB of TCA-precipitated supernatant, HCT-116; conditions: glycan lost; control: wild type
[5] = WB of TCA-precipitated supernatant, HEK293T; conditions: glycan lost; control: wild type

Molecule	degradation_or_half_life, half_life [1]	localisation_or_trafficking [2]	localisation_or_trafficking [3]	further results
B7-H6, wild type, stably expressed on B7-H6 knockout 293T cells (from UniProt Q68D85) N411Q				ratio to parent (rhNKp30-his protein): 0.94
B1				degradation_or_half_life, half_life (CHX chase, WB, U87): decreases, 12.83 vs 27.14; degradation_or_half_life, half_life (CHX chase, WB, 293T): decreases, 17.36 vs 47.42
B2	decreases, 5 vs about 52	decreases	decreases	
B3	decreases, 15 vs about 52	decreases	decreases	other: shedding of soluble B7-H6 [4]: increases; other: shedding of soluble B7-H6 [5]: increases
